Experimental data as given in patent US9573983B2, “Compositions including I-domain antigen conjugate compounds and methods for treatment of autoimmune disorders” (University of Kansas, priority 2012, dated 2017).
Values joined by “and” are separate entries in the source; they are usually repeats but may differ in a detail not shown here. Identical values can stand only once.

Experiments:
EAE mouse model = test: Suppression of EAE, prophylactic and vaccine-like treatment (Example 2); format: in vivo, SJL/J female mice; settings: for change in body weight: p<0.005, days 12-24
Experimental: Six-to-eight week old SJL/J female mice were immunized subcutaneously with 200 μg PLP139-151 peptide in a 0.2 ml emulsion consisting of equal volumes of PBS and complete Freund's adjuvant (CFA) containing killed mycobacterium tuberculosis strain H37RA at a final concentration of 4 mg/ml (Difco, Detroit, Mich.). The PLP/CFA emulsion was administered to regions above the shoulder and the flanks (total of 4 sites, 50 μl at each injection site). In addition, 200 ng of pertussis toxin was injected intraperitoneally on the day of immunization (day 0) and 2 days post-immunization.
The mice then received either intravenous or subcutaneous injections of IDAC (10 or 26 nmol/injection) or peptides (100 nmol/injection for Ac-PLP-BPI-NH2-2 or 50 nmol/injection/mouse for Ac-PLP-cIBR1-NH2). The prophylactic disease suppression was carried out with subcutaneous or intravenous injections of IDAC molecules on days 4 and 7, or BPI molecules on days 4, 7, and 10. Mice receiving vaccine-like treatment were given subcutaneous injections of IDAC and BPI molecules at 11, 8, and 5 days prior to the induction of disease. As negative controls, mice were treated with PBS, 1-domain, and GMB-I-domain. Disease progression was evaluated by monitoring the change in weight of the mice and clinical scoring based on the severity of nerve damage ranging from 0 to 5: 0—no clinical symptoms of disease; 1—tail weakness or limp tail; 2—paraparesis (weakness or partial paralysis of one or two hind limbs); 3—paraplegia (complete paralysis of two hind limbs); 4—paraplegia with forelimb weakness or paralysis; 5—moribund (at this point, the affected mice were euthanized).
(§1) Statistical differences among the groups in clinical disease scores were determined by calculating the average score for each mouse from day 12 to day 17 by one-way analysis of variance followed by Fisher's least significant difference. Statistical differences in body weight among groups were also analyzed in the same fashion, but from day 12 to day 24. Comparison of cytokine concentrations was also performed by one-way analysis of variance. All analyses were performed using StatView (SAS Institute, Cary, N.C.).

splenocytes = test: Cytokine levels in vitro from splenocytes of treated EAE mice (Q-Plex ELISA); format: cell-based, female SJL/J (H-2^s) mice; settings: IDAC-3 26 nmol/injection s.c. days 4 and 7
Experimental: Representative spleens for each group (IDAC-3 or PBS) from Study 2 were harvested from female SJL/J (H-2^s) mice on days 13 and 35. Splenocytes were dispersed by gently smashing the spleen using the coarse portion of a 1 ml syringe in a petri dish containing RPMI 1640 medium (10% FBS, […]). The cells were then filtered through a 40 micrometer strainer. After centrifugation, the red blood cells were lysed using “ACK lysis buffer,” and the remaining white blood cells were washed three times with medium. Splenocytes (5×10^6 cells/ml) were cultured in parallel in the presence of 20 μM PLP and blank RPMI medium. Supernatants were collected at a 72 h time-point for the measurement of cytokine levels. The samples were then analyzed using a fully quantitative ELISA-based Q-Plex™ Mouse Cytokine-Screen (Quansys Biosciences, Logan, Utah).
as §1

[1] = 3 injections, vaccine-like s.c.
[2] = s.c. 26 nmol/injection days 4 and 7, vs PBS
[3] = vaccine-like s.c. 10 nmol on days -11, -8, -5

B1: I-domain: LFA-1 I-domain protein, SEQ ID NO: 1; negative control and carrier protein (protein, listed as Homo sapiens)
chain: MGNVDLVFLFDGSMSLQPDEFQKILDFMKDVMKKLSNTSYQFAAVQFSTSYKTEFDFSDYVKRKDPDALLKHVKHMLLLTNTFGAINYVATEVFREELGARPDATKVLIIITDGEATDSGNIDAAKDIIRYIIGIGKHFQTKESQETLHKFASKPASEFVKILDTFEKLKDLFTELQKKIY
suppression of progress of EAE (clinical score, change in body weight, incidence of disease) (EAE mouse model; two i.v. injections, 26 nmol/injection, days 4 and 7, vs PBS): neither the I-domain nor GMB-I-domain significantly suppressed the progress of EAE | onset of disease (EAE mouse model; two i.v. injections, 26 nmol/injection, days 4 and 7, vs PBS, I-domain controls): slight delay in the onset of the disease

B2: (Ac-HSLGKWLGHPDKFC-NH2)n-linker-I-domain (conjugate, listed as Homo sapiens)
chain 1: HSLGKWLGHPDKFC
chain 2: MGNVDLVFLFDGSMSLQPDEFQKILDFMKDVMKKLSNTSYQFAAVQFSTSYKTEFDFSDYVKRKDPDALLKHVKHMLLLTNTFGAINYVATEVFREELGARPDATKVLIIITDGEATDSGNIDAAKDIIRYIIGIGKHFQTKESQETLHKFASKPASEFVKILDTFEKLKDLFTELQKKIY
modifications: Ac, NH2 caps; maleimide linker; Chemically synthesized signal 1 moiety peptide with amino acids 139-151 of PLP protein modified with a terminal cysteine
notes: Ac-PLP-Cys-NH2 (capped) peptides conjugated via maleimide linkers to lysine residues of I-domain
IL-5 level compared to PBS-treated group (splenocytes; day 13): no significant difference | IL-10 level (splenocytes; day 13): could not be detected | IL-2 level, PBS-treated vs IDAC-3-treated group (splenocytes; day 13, p<0.05): IL-2 cytokine levels were higher than in the IDAC-3-treated group | IL-2 level, PBS-treated vs IDAC-3-treated group (splenocytes; day 35): no significant difference | IL-17 level compared to PBS-treated group (splenocytes; day 35, p<0.0001): fourfold lower | IL-5 level compared to PBS-treated group (splenocytes; day 35, p<0.0005): significantly higher | IL-12 level compared to PBS-treated group (splenocytes; day 35, p<0.005): significantly lower | IL-10 level compared to PBS group (splenocytes; day 35, p<0.05): significantly higher levels | maximum toxic concentration (estimated therapeutic window) (EAE mouse model; [1]): 26 nmol | minimum effective concentration (estimated therapeutic window) (EAE mouse model; [1]): 10 nmol | clinical scores, IDAC-3 compared with IDAC-1 (EAE mouse model; i.v. 26 nmol/injection days 4 and 7, p<0.005, days 12-17): better than IDAC-1 in suppressing EAE | disease incidence (EAE mouse model; i.v. 26 nmol/injection days 4 and 7, vs PBS): delays in disease incidence | onset of disease (clinical scores) (EAE mouse model; i.v. 26 nmol/injection days 4 and 7, vs PBS, IDAC molecules): delayed the onset of disease | clinical scores (suppression of EAE) (EAE mouse model; i.v. 26 nmol/injection days 4 and 7, vs PBS, p<0.0005, days 12-17): significantly better at suppressing EAE than PBS | body weight change (EAE mouse model; i.v. 26 nmol/injection days 4 and 7, vs PBS, p<0.05, days 12-24): significantly more effective than PBS in suppressing disease | disease incidence (EAE mouse model; [2]): significantly more efficacious than PBS in suppressing EAE | clinical scores (suppression of EAE) (EAE mouse model; s.c. 26 nmol/injection days 4 and 7, vs PBS, p<0.005, days 12-17): significantly more efficacious than PBS in suppressing EAE | change in body weight (EAE mouse model; [2]): significantly more efficacious than PBS in suppressing EAE | anaphylaxis (EAE mouse model; [3]): did not result in anaphylaxis | efficacy of low dose compared with 26 nmol dose (EAE mouse model; [3]): not as effective as the 26 nmol dose | efficacy of high dose compared with other groups (EAE mouse model; vaccine-like s.c. 26 nmol/injection days -11, -8, -5, four animals, no statistical analysis): seemed to be better than the lower dose (10 nmol/injection) group and similar to the Ac-PLP-BPI-NH2-2-treated group | toxic effect / adverse events (mice affected) (EAE mouse model; vaccine-like s.c. 26 nmol/injection, third injection (day -5)): two of six mice and 2 of the 6 mice | potency compared with Ac-PLP-BPI-NH2-2 (EAE mouse model; vaccine-like s.c. days -11, -8, -5, IDAC-3 10 nmol/injection vs Ac-PLP-BPI-NH2-2 100 nmol/injection): less potent than Ac-PLP-BPI-NH2-2 | clinical scores (suppression of EAE) (EAE mouse model; vaccine-like s.c. days -11, -8, -5, IDAC-3 10 nmol/injection, Ac-PLP-BPI-NH2-2 100 nmol/injection, vs PBS, p<0.005, days 12-17): significantly better clinical scores | change in body weight (EAE mouse model; vaccine-like s.c. days -11, -8, -5, IDAC-3 10 nmol/injection, Ac-PLP-BPI-NH2-2 100 nmol/injection, vs PBS): significantly better | onset of disease (incidence of disease) (EAE mouse model; vaccine-like s.c., IDAC-3 26 nmol/injection days -11, -8, Ac-PLP-BPI-NH2-2 100 nmol/injection days -11, -8, -5): Delay in the onset of disease | relapse of disease (long-term effect) (EAE mouse model; vaccine-like s.c., IDAC-3 26 nmol/injection days -11, -8, Ac-PLP-BPI-NH2-2 100 nmol/injection days -11, -8, -5, days 45-55): long-term effect in suppressing relapse of the disease | clinical scores (suppression of EAE) (EAE mouse model; vaccine-like s.c., IDAC-3 26 nmol/injection days -11, -8, vs PBS, p<0.0001, days 12-17 and 45-55): suppressed EAE significantly better than PBS | change of body weight (EAE mouse model; vaccine-like s.c., IDAC-3 26 nmol/injection days -11, -8, vs PBS, p<0.0001, days 12-24): suppressed EAE significantly better than PBS
